Assay results taken from patent publication US20110118172A1 (Takeda / Millennium, published 2011).
Non-standard residues stand in square brackets, D forms with d. No end group written: not given here. *: point of attachment. benzylureido = benzylcarbamoyl on the N-terminal amino group, O=C(NCc1ccccc1)*; amidino = amidino group on the N-terminal amino group, N=C(N)*; Pro(trans-4-F) = O=C(O)[C@@H]1C[C@@H](F)CN1; Arg(Me) = CNC(=N)NCCC[C@H](N)C(=O)O; Dap(CONH2) = NC(=O)NC[C@H](N)C(=O)O; Hyp = O=C(O)[C@@H]1C[C@@H](O)CN1; Cha = N[C@@H](CC1CCCCC1)C(=O)O; dCha = N[C@H](CC1CCCCC1)C(=O)O; Decanoyl = CCCCCCCCCC(=O)*; Carbamoyl = NC(=O)*; azaGly = NNC(=O)O; Ms = CS(=O)(=O)*

B1: Compound No. 963: des(1)-Ms-[D-Tyr2,Hyp3,Thr5,AzaGly7,Arg(Me)9,Trp10]MS10 (peptide)
peptide: Ms-[dY][Hyp]NTF[azaGly]L[Arg(Me)]W-NH2
SMILES: CNC(=N)NCCC[C@H](NC(=O)[C@H](CC(C)C)NC(=O)NNC(=O)[C@H](Cc1ccccc1)NC(=O)[C@@H](NC(=O)[C@H](CC(N)=O)NC(=O)[C@@H]1C[C@@H](O)CN1C(=O)[C@@H](Cc1ccc(O)cc1)NS(C)(=O)=O)[C@@H](C)O)C(=O)N[C@@H](Cc1c[nH]c2ccccc12)C(N)=O
B2: Compound No. 977: des(1-2)-[Hyp3,Thr5,AzaGly7,Arg(Me)9,Trp10]MS10 (peptide)
peptide: [Hyp]NTF[azaGly]L[Arg(Me)]W-NH2
modifications: N-terminus assumed
SMILES: CNC(=N)NCCC[C@H](NC(=O)[C@H](CC(C)C)NC(=O)NNC(=O)[C@H](Cc1ccccc1)NC(=O)[C@@H](NC(=O)[C@H](CC(N)=O)NC(=O)[C@@H]1C[C@@H](O)CN1)[C@@H](C)O)C(=O)N[C@@H](Cc1c[nH]c2ccccc12)C(N)=O
B3: Compound No. 971: des(1)-Amidino-[D-Tyr2,Hyp3,Thr5,AzaGly7,Arg(Me)9,Trp10]MS10 (peptide)
peptide: amidino-[dY][Hyp]NTF[azaGly]L[Arg(Me)]W-NH2
SMILES: CNC(=N)NCCC[C@H](NC(=O)[C@H](CC(C)C)NC(=O)NNC(=O)[C@H](Cc1ccccc1)NC(=O)[C@@H](NC(=O)[C@H](CC(N)=O)NC(=O)[C@@H]1C[C@@H](O)CN1C(=O)[C@@H](Cc1ccc(O)cc1)NC(=N)N)[C@@H](C)O)C(=O)N[C@@H](Cc1c[nH]c2ccccc12)C(N)=O
B4: Compound No. 966: des(1)-Benzylureido-[D-Tyr2,Hyp3,Thr5,AzaGly7,Arg(Me)9,Trp10]MS10 (peptide)
peptide: benzylureido-[dY][Hyp]NTF[azaGly]L[Arg(Me)]W-NH2
SMILES: CNC(=N)NCCC[C@H](NC(=O)[C@H](CC(C)C)NC(=O)NNC(=O)[C@H](Cc1ccccc1)NC(=O)[C@@H](NC(=O)[C@H](CC(N)=O)NC(=O)[C@@H]1C[C@@H](O)CN1C(=O)[C@@H](Cc1ccc(O)cc1)NC(=O)NCc1ccccc1)[C@@H](C)O)C(=O)N[C@@H](Cc1c[nH]c2ccccc12)C(N)=O
B5: Compound No. 965: des(1)-decanoyl[D-Tyr2,Hyp3,Thr5,AzaGly7,Arg(Me)9,Trp10]MS10 (peptide)
peptide: Decanoyl-[dY][Hyp]NTF[azaGly]L[Arg(Me)]W-NH2
SMILES: CCCCCCCCCC(=O)N[C@H](Cc1ccc(O)cc1)C(=O)N1C[C@H](O)C[C@H]1C(=O)N[C@@H](CC(N)=O)C(=O)N[C@H](C(=O)N[C@@H](Cc1ccccc1)C(=O)NNC(=O)N[C@@H](CC(C)C)C(=O)N[C@@H](CCCNC(=N)NC)C(=O)N[C@@H](Cc1c[nH]c2ccccc12)C(N)=O)[C@@H](C)O
B6: Compound No. 967: des(1)-Ureido-[D-Tyr2,Hyp3,Thr5,AzaGly7,Arg(Me)9,Trp10]MS10 (peptide)
peptide: Carbamoyl-[dY][Hyp]NTF[azaGly]L[Arg(Me)]W-NH2
SMILES: CNC(=N)NCCC[C@H](NC(=O)[C@H](CC(C)C)NC(=O)NNC(=O)[C@H](Cc1ccccc1)NC(=O)[C@@H](NC(=O)[C@H](CC(N)=O)NC(=O)[C@@H]1C[C@@H](O)CN1C(=O)[C@@H](Cc1ccc(O)cc1)NC(N)=O)[C@@H](C)O)C(=O)N[C@@H](Cc1c[nH]c2ccccc12)C(N)=O

Target: metastin receptor (OT7T175) stably expressed on CHO cells
Assay: cell-based or functional assay

Binder	Specific Activity: EC50 of the test compound based on EC50 of Metastin (45-54); agonist activity by change in intracellular calcium ion level (Fluo-4 NW, FLIPR) in receptor-expressing CHO cells [ratio]
B1	0.9
B2	1.7
B3	0.4
B4	1.9
Ac-[dY][Hyp]NT[Cha][azaGly]L[Arg(Me)]W-NH2 [Compound No. 969: des(1)-Ac-[D-Tyr2,Hyp3,Thr5,Cha6,AzaGly7,Arg(Me)9,Trp10]MS10]	0.3
B5	4.1
Ac-[dY][Hyp][Dap(CONH2)]T[Cha]GL[Arg(Me)]W-NH2 (also: Gly7-Leu8 -CONH- replaced by (E)-CMe=CH-) [Compound No. 986: des(1)-Ac-[D-Tyr2,Hyp3,Alb4,Thr5,Cha6,Gly7ψ((E)CMe=CH)Leu8,Arg(Me)9,Trp10]MS10]	0.3
Ac-[dY][Pro(trans-4-F)]NT[Cha][azaGly]L[Arg(Me)]W-NH2 [Compound No. 970: des(1)-Ac-[D-Tyr2,Pro(4F)3,Thr5,Cha6,AzaGly7,Arg(Me)9,Trp10]MS10]	0.6
Ac-[dY][Hyp][Dap(CONH2)]T[Cha]G[dL][Arg(Me)]W-NH2 (also: Gly7-D-Leu8 -CONH- replaced by (E)-CH=CH-) [Compound No. 976: des(1)-Ac-[D-Tyr2,Hyp3,Alb4,Thr5,Cha6,Gly7ψ((E)CH=CH)D-Leu8,Arg(Me)9,Trp10]MS10]	1
Ac-[dY][Hyp][Dap(CONH2)]T[dCha]GL[Arg(Me)]W-NH2 (also: Gly7-Leu8 -CONH- replaced by (E)-CH=CH-) [Compound No. 975: des(1)-Ac-[D-Tyr2,Hyp3,Alb4,Thr5,D-Cha6,Gly7ψ((E)CH=CH)Leu8,Arg(Me)9,Trp10]MS10]	2.3
B6	0.6
